# Patent publication US9486502B2, “Methods of administering interferon gamma to absorb fluid from the subretinal space” (The United States of America, as represented by the …, priority 2008, dated 2016)
# B1: IFNγ: pleiotropic cytokine produced by T- and NK-cells; obtained from Peprotech (protein, UniProt P01579 24-161, looked up)
# Interferon gamma: QDPYVKEAENLKKYFNAGHSDVADNGTLFLGILKNWKEESDRKIMQSQIVSFYFKLFKNFKDDQSIQKSVETIKEDMNVKFFNSNKKKRDDFEKLTNYSVTDLNVQRKAIHELIQVMAELSPAAKTGKRKRSQMLFRG
# Legend:
# hfRPE cells = assay: JC-1 staining of mitochondrial membrane potential; format: cell-based, human
# Method: Mitochondrial membrane potential change (w) was assessed in live hfRPE cells using the lipophilic cationic probe 5,5′,6,6′-tetrachloro-1,1′3,3′-tetraethylbenzimidazol-carbocyanine iodide (JC-1) following the manufacturer's instructions and as described in Voloboueva, L. A., et al., Invest Ophthalmol Vis Sci, 2005, 46, 4302-4310, incorporated herein by reference in its entirety. Confluent monolayers of hfRPE were treated with different concentrations of IFNγ (0.5, 5, 50 ng/ml) for 24, 48, or 72 hours and then incubated with JC-1 solution for 30 minutes at 37° C. Fluorescence was evaluated with a Zeiss Axiovert 25 inverted microscope.
# rat RPE = assay: in vivo retinal re-attachment assay (OCT)
# Method: All animal experiments were conducted in compliance with the ARVO Statement for the use of Animals in Ophthalmic and Vision Research, and the protocol was approved by the Animal Care and Use Committee of the National Institutes of Health. The procedures have been described in detail in Maminishkis, A., et al., Invest Ophthalmol Vis Sci, 2006, 47, 3612-3624, incorporated by reference in its entirety herein. Briefly, retinal detachments were created in long-Evans rats by injecting 0.5 to 3 μl of modified phosphate-buffered saline (MPBS) Ringer's solution into the sub-retinal space (SRS), which separates the photoreceptor outer segments and the apical membrane of the RPE. In the control portion of each experiment (at 0-70 minutes after creation of the retinal detachment), the rate of change of bleb volume was measured. The control period of “constant” volume was defined by JV≦2 μl hr cm over at least 40 minutes. Any control injections that exceeded this threshold rate were rejected from subsequent analysis.
# IFNγ was dissolved in MPBS, mixed with Celluvisc® solution (1:1) and applied as eye-drops (0.4 mL). Optical coherence tomography (OCT) imaging (Institute of Applied Physics, Russian Academy of Science, Nizhniy Novgorod, Russia) was used to measure the time course of the detachment volume change.
# A previously tested in vivo rodent model of retinal detachment was used to measure the effect of IFNγ on re-absorption following retinal detachment, as described in Example 11 and in Maminishkis, A., et al., Invest Ophthalmol Vis Sci, 2002, 43, 3555-3566, incorporated herein by reference in its entirety. Initial detachment was created by injecting approximately 1 μl of osmotically-balanced, modified phosphate-buffered saline (MPBS) Ringer's solution into the extracellular space, i.e. the sub-retinal space (SRS). After stabilization of the detachment, IFNγ (40 μl of 100 ng/ml) was added to the anterior surface of the eye via eye drops (Celluvisc®). A series of 3D OCT images were recorded at different time points.
# hfRPE monolayer = assay: fluorescence imaging of intracellular calcium; format: cell-based, human; conditions: IFNγ 0.5, 5, 50 ng/ml both sides; n=4
# Method: Therefore, whether the CFTR pathway was involved in the response to IFNγ was examined using cAMP assays as described in Example 8. Primary cultures of hfRPE cells were incubated in control media, in the presence of IFNγ (0.5, 5, or 50 ng/ml), or in forskolin containing media (10 μM) for different amounts of time (5 minutes, 45 minutes, 12 hours, or 24 hours), and then total intracellular cAMP levels were measured using a cAMP ELISA System (Applied Biosystems, Foster City, Calif.). […] (n=3; P<0.05). […] In a separate set of experiments, fluorescence imaging was used to measure the intracellular concentration of calcium [Ca^2+]I in the presence of IFNγ (0.5, 5, 50 ng/ml) added to both sides of the hfRPE monolayer and no change in total cell [Ca^2+]I was observed (n=4, data not shown).
molecule,measurement,setting,value
B1,mitochondrial membrane potential (JC-1),hfRPE cells; 24 or 48 hour time points,no significant differences
same,mitochondrial membrane potential (JC-1 aggregate fluorescence),"hfRPE cells; IFNγ 0.5, 5, 50 ng/ml, 72 hours",dose-dependent decrease
same,JV (fluid transport rate out of the retinal detachment),"rat RPE; IFNγ eye drops on anterior surface, t=0 to 40 minutes, FIG. 23B/E",12 μl·cm^−2·hr^−1
same,time in which rate of fluid absorption from subretinal space was significantly increased,rat RPE; IFNγ on anterior surface of the eye,less than 30 minutes
same,detachment size (volume),"rat RPE; IFNγ on anterior surface, 40 or 54 minutes",decrease in detachment size
same,total cell [Ca^2+]I,hfRPE monolayer,no change
